In publication PMC8043444 (bioRxiv, 2021):

Experiments:
[1] = target: yeast-displayed unmutated SARS-CoV-2 RBD (Wuhan-Hu-1) (SARS-CoV-2, UniProt P0DTC2); experiment: flow cytometry on cells
[2] = target: SARS-CoV-2 HexaPro Spike protein for cryoEM analysis (SARS-CoV-2 (Wuhan-Hu-1), UniProt P0DTC2, stabilised); experiment: cryo-EM structure

| Binder | binding result [1] | binding result [2] |
| --- | --- | --- |
| S2H14 IgG1 (LS) (antibody, V domains shown) VH: not shown VL: NFMLTQPHSVSESPGKTVTISCTRSSGSIASNYVQWYQQRPGSSPTTVIYEDNQRPSGVPDRFSGSIDSSSNSASLTISGLKTEDEADYYCQSYDSSNQVFGGGTKLTVL | binds | – |
| S2D106 Fab (Fab, V domains shown) VH: EVQLVQSGAEVKKPGSSVKVSCKASGGPFSSSAISWVRQAPGQGLEWMGGIIPMVGTANYAQKFQGRVTITADESTSTAYMELSSLRSEDTAVYYCARDSRYCSGGSCYSVWFDPWGQGTLVTVSS VL: not shown | – | binds |
| S2H97 Fab (Fab, V domains shown) VH: QVRLVQSGAEVKKSGESLKISCKGSGYSFTSYWIGWVRQMPGKGLEWMGIIYPGDSDTRYSPSFQGQVTISADKSISTVYLQWSSLKASDTAMYYCARQWSHYTYDYYYWGQGTLVTISS VL: QSVLTQPASVSGSPGQSITISCTGISSDVGGYNSVSWYQQHPGKAPKLMIYDVTNRPSGVSNRFSGSKSGNTASLTISGLQAEDEADYYCSSYTSSSTPPYVFGTGTKVSVL | – | binds |
